In ChEMBL document CHEMBL3769311, “The natural flavone fukugetin as a mixed-type inhibitor for human tissue kallikreins” (Bioorg Med Chem Lett, 2016):

Key:
[1] = substrate: O=C1CC(c2ccc(O)c(O)c2)Oc2c1c(O)cc(O)c2[C@@H]1C(=O)c2c(O)cc(O)cc2O[C@H]1c1ccc(O)cc1; details: Homo sapiens; 4 uM
[2] = substrate: O=C1CC(c2ccc(O)c(O)c2)Oc2c1c(O)cc(O)c2[C@@H]1C(=O)c2c(O)cc(O)cc2O[C@H]1c1ccc(O)cc1; details: Homo sapiens; 8 uM
[3] = substrate: O=C1CC(c2ccc(O)c(O)c2)Oc2c1c(O)cc(O)c2[C@@H]1C(=O)c2c(O)cc(O)cc2O[C@H]1c1ccc(O)cc1; details: Homo sapiens; 4 uM; remark: listed apart in the source
Description: Mixed-type inhibition of human tissue kallikrein-2 expressed in baculovirus infected insect cells using Abz-KLRSSQ-EDDnp as substrate assessed as substrate Km at 4 uM by Lineweaver-Burk plot analysis

[4] = substrate: O=C1CC(c2ccc(O)c(O)c2)Oc2c1c(O)cc(O)c2[C@@H]1C(=O)c2c(O)cc(O)cc2O[C@H]1c1ccc(O)cc1; details: Homo sapiens; 10 uM
[5] = substrate: O=C1CC(c2ccc(O)c(O)c2)Oc2c1c(O)cc(O)c2[C@@H]1C(=O)c2c(O)cc(O)cc2O[C@H]1c1ccc(O)cc1; details: Homo sapiens; 2 uM
[6] = substrate: O=C1CC(c2ccc(O)c(O)c2)Oc2c1c(O)cc(O)c2[C@@H]1C(=O)c2c(O)cc(O)cc2O[C@H]1c1ccc(O)cc1; details: Homo sapiens; 10 uM; remark: listed apart in the source
Description: Mixed-type inhibition of human tissue kallikrein-2 expressed in baculovirus infected insect cells using Abz-KLRSSQ-EDDnp as substrate assessed as substrate Km at 10 uM by Lineweaver-Burk plot analysis

[7] = substrate: O=C1CC(c2ccc(O)c(O)c2)Oc2c1c(O)cc(O)c2[C@@H]1C(=O)c2c(O)cc(O)cc2O[C@H]1c1ccc(O)cc1; details: Homo sapiens; 2 uM; remark: listed apart in the source
Description: Mixed-type inhibition of human tissue kallikrein-2 expressed in baculovirus infected insect cells using Abz-KLRSSQ-EDDnp as substrate assessed as substrate Km at 2 uM by Lineweaver-Burk plot analysis

[8] = substrate: O=C1CC(c2ccc(O)c(O)c2)Oc2c1c(O)cc(O)c2[C@@H]1C(=O)c2c(O)cc(O)cc2O[C@H]1c1ccc(O)cc1; details: Homo sapiens; 8 uM; remark: listed apart in the source
Description: Mixed-type inhibition of human tissue kallikrein-2 expressed in baculovirus infected insect cells using Abz-KLRSSQ-EDDnp as substrate assessed as substrate Km at 8 uM by Lineweaver-Burk plot analysis

B1: Kallikrein-2 (Homo sapiens), P20151 (protein)
chain: MWDLVLSIALSVGCTGAVPLIQSRIVGGWECEKHSQPWQVAVYSHGWAHCGGVLVHPQWVLTAAHCLKKNSQVWLGRHNLFEPEDTGQRVPVSHSFPHPLYNMSLLKHQSLRPDEDSSHDLMLLRLSEPAKITDVVKVLGLPTQEPALGTTCYASGWGSIEPEEFLRPRSLQCVSLHLLSNDMCARAYSEKVTEFMLCAGLWTGGKDTCGGDSGGPLVCNGVLQGITSWGPEPCALPEKPAVYTKVVHYRKWIKDTIAANP
Vmax [1]: 144 µM/s
Vmax [2]: 110 µM/s
Km [3]: 0.81 µM
Vmax [4]: 79 µM/s
Vmax [5]: 192 µM/s
Km [6]: 1.2 µM
Km [7]: 0.72 µM
Km [8]: 1.04 µM
